Test results published in article PMC9146136 (2022).

Molecular target: anti-mTNFα 3B11 VNAR (soluble, purified)
Assay: BLI

B1: extracellular domain of mTNFα (mTNFα ECD, 77-235aa) (domain or fragment)
chain: TLTLRSSSQNSSDKPVAHVVANHQVEEQLEWLSQRANALLANGMDLKDNQLVVPADGLYLVYSQVLFKGQGCPDYVLLTHTVSRFAISYQEKVNLLSAVKSPCPKDTPEGAELKPWYEPIYLGGVFQLEKGDQLSAEVNLPKYLDFAESGQVYFGVIAL
modifications: biotin (biotin-NHS labeling reaction) in the BLI assay only
**Q.** How did the koff turn out when B1 was run?
**A.** 2.69e-05 s⁻¹
